Results on 2 molecules are retold here after publication PMC6774396 (Frontiers in Immunology, 2019).

The subject of assay [1] is THP-1 cells on immobilized biglycan. The note with it: isolated THP-1 cells, L-selectin-GFP/RFP; cited from earlier work. An excerpt: This figure pieces together data from our recently published work ([8], [23]) with our data from this study. (A,B) In cells expressing WT L-selectin, clustering is only witnessed within pseudopods of transmigrating cells. […] Moesin-driven clustering is a pre-requisite for L-selectin shedding, and so the balance of L-select ...

The test system of the next assay is THP-1 cells. Briefly: Antibody-mediated clustering (AMC) of L-selectin-GFP/RFP, FLIM/FRET. It counts as cell-based, human. The note with it: for change in FRET efficiency on AMC or versus comparator (in words) / FRET efficiency after AMC: DREG56 plus secondary antibody; for FRET efficiency after AMC: 10 min at 37°C, GFP/RFP pair. An excerpt:
(A) Schematic representation of the cleavage site, transmembrane domain (TMD), and cytoplasmic tail of human L-selectin. Red underlined region of the cleavage site denotes the amino acids that are deleted in ΔM-N L-selectin. […] Red arrow points to the position of the cut site of the L-selectin cleavage domain. (B) Cells expressing matched levels of L-selectin-GFP/RFP in the following forms: WT, ΔM-N, SSAA, ΔM-N^SSAA, and R357A were subjected to AMC using Alexa Fluor 647-conjugated DREG56 or isotype-matched control, followed by goat anti-mouse secondary antibody (see Materials and Methods for more detail). Cells were plated onto poly-L-lysine-coated coverslips and prepared for FLIM/FRET analysis (see materials and methods). FLIM was used to measure the FRET efficiency between the GFP/RFP donor/acceptor pairs as a direct function of cytoplasmic tail clustering […]. At least 45 individual cells were analyzed over 3 independent clustering assays. (C) Representative images are shown for each cell line. The lifetime of fluorescence (Lftm) is expressed in a pseudocolour scale from red (low lifetime with a very high probability of interaction) to blue (high lifetime with a very low probability of interaction). […] Cells were lysed directly in protein loading buffer (containing the reducing agent, dithiothreitol) and resolved onto standard (lower panel) or phos-tag (upper panel) polyacrylamide gels. Antibodies to GFP and RFP were used to, respectively, probe ΔM-N and ΔM-N^SSAA on Western blots. […] Statistics: One-Way ANOVA Tukey's multiple comparison test. **p ≤ 0.01; ***p ≤ 0.001; ****p ≤ 0.0001.
THP-1 cells were adjusted the night before AMC to a density of 0.5 ×10^6 cells per mL. On the same day, 13 mm diameter glass coverslips (thickness “1”) were placed into the base of a 24 well dish, spotted with 100 μL of poly-L-lysine (PLL) to immobilize according to manufacturer's instruction. On the day of the assay, THP-1 cells were counted and adjusted to a density of 1 ×10^6 per mL in 500 μL containing antibody labeling buffer (RPMI culture medium containing FcR block [Miltenyi Biotec]). Cells were labeled with 2 μg per mL DREG56 for 30 min at 4°C, followed by washing (by centrifugation at 300 g and resuspension) in ice cold culture media to remove excess unbound antibody and then incubated back in ice cold labeling buffer containing secondary antibody conjugated to Alexa Fluor […] (Thermo Fisher) for a further 30 min at 4°C. Cells were then washed twice in ice cold neat RPMI and resuspended to 100 μL of neat ice cold RPMI before 80 μL of the cell suspension was seeded onto 13 mm diameter glass coverslips (thickness = “1”), which were pre-coated with PLL-coated the night before. The seeded cells were placed into a humidified cell culture incubator at 37°C and 5% CO2 for 10 min to drive clustering. Adhered cells were flooded in excess 4% paraformaldehyde and fixed for 15 min at room temperature. Fixed coverslips were washed 3 times in PBS and then treated in 10 mg/mL of Sodium Borohydride dissolved in phosphate buffered saline for 10 min at room temperature (to eliminate autofluorescence and enhance signal to noise ratios). Coverslips were subsequently washed in PBS to remove sodium borohydride and mounted using DAKO mounting medium.
FLIM measurement of FRET was performed with a multiphoton microscope system as described previously ([8], [23]). A Nikon TE2000E inverted microscope, combined with an in-house scanner and Chameleon Ti:Sapphire ultrafast pulsed multiphoton laser (Coherent Inc.), was used for excitation of GFP (at 890 nm). Fluorescence lifetime imaging capability was provided by time-correlated, single-photon counting electronics (SPC 700; Becker & Hickl). A 40 × objective (NA 1.3) was used throughout (CFI60 Plan Fluor; Nikon), and data were acquired at 500 ± 20 nm through a bandpass filter (35–5040; Coherent Inc.). […]

Where [2] appears, read: at least 45 cells, 3 independent assays.

B1: WT: wild-type human L-selectin, C-terminally tagged with GFP or RFP, expressed in THP-1 cells (protein)
chain: WTYHYSEKPMNWQRARRFCRDNYTDLVAIQNKAEIEYLEKTLPFSRSYYWIGIRKIGGIWTWVGTNKSLTEEAENWGDGEPNNKKNKEDCVEIYIKRNKDAGKWNDDACHKLKAALCYTASCQPWSCSGHGECVEIINNYTCNCDVGYYGPQCQFVIQCEPLEAPELGTMDCTHPLGNFSFSSQCAFSCSEGTNLTGIEETTCGPFGNWSSPEPTCQVIQCEPLSAPDLGIMNCSHPLASFSFTSACTFICSEGTELIGKKKTICESSGIWSNPSPICQKLDKSFSMIKEGDYNPLFIPVAVMVTAFSGLAFIIWLARRLKKGKKSKRSMNDPY
modifications: left off: eGFP (donor copy) or mCherry (acceptor copy, called RFP), C-terminal, kept
As to B1, in assay [1], the “clustering on immobilized biglycan” value is on record as “can cluster when seeded onto immobilized biglycan”. In addition, the “change in FRET efficiency on AMC or versus comparator (in words)” value in the assay on THP-1 cells was “significantly increased the FRET efficiency”. In the assay on THP-1 cells (setting [2]), the “FRET efficiency after AMC” value amounted to 12.39%. The “FRET efficiency without AMC” value in the assay on THP-1 cells (WT L-selectin-GFP/RFP before AMC (isotype-matched control), at least 45 cells, 3 independent assays) came out at 1.35%.

B2: SSAA: L-selectin with Ser^364 and Ser^367 both mutated to alanines (protein)
chain: WTYHYSEKPMNWQRARRFCRDNYTDLVAIQNKAEIEYLEKTLPFSRSYYWIGIRKIGGIWTWVGTNKSLTEEAENWGDGEPNNKKNKEDCVEIYIKRNKDAGKWNDDACHKLKAALCYTASCQPWSCSGHGECVEIINNYTCNCDVGYYGPQCQFVIQCEPLEAPELGTMDCTHPLGNFSFSSQCAFSCSEGTNLTGIEETTCGPFGNWSSPEPTCQVIQCEPLSAPDLGIMNCSHPLASFSFTSACTFICSEGTELIGKKKTICESSGIWSNPSPICQKLDKSFSMIKEGDYNPLFIPVAVMVTAFSGLAFIIWLARRLKKGKKAKRAMNDPY
modifications: left off: eGFP (donor copy) or mCherry (acceptor copy, called RFP), C-terminal, kept
Take B2: the “change in FRET efficiency on AMC or versus comparator (in words)” value with THP-1 cells is “modest but significant drop in FRET efficiency compared to WT L-selectin”. Moreover, the “FRET efficiency after AMC” value in the assay with THP-1 cells (setting [2]) is given as 9.25%.
